Experimental data: the supplement of paper PMC10567573
± gives the standard deviation.

Test: protein stability index of a GFP-peptide fusion (GPS, HEK-293T) (PSI 1-6); higher = more stable
Settings: c terminus: a fixed tail appended
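Also: 24-mer peptide tiles fused after GFP, lentivirally expressed, FACS-sorted into six equal bins by GFP/DsRed ratio, decoded by Illumina sequencing, PSI is the read-weighted mean bin number.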

Sequence | protein stability index (treatment: DMSO) | protein stability index (treatment: MLN4924 1 uM, 8 h)
RRNPELQEELQIQAAVAAGDVHTV [ASB7] | 4.85 ± 0.18 | 4.82 ± 0.16
RRRGPRNKKRGWRRLAQEPLGLEV [NOP53] | 3.65 ± 0.18 | 3.73 ± 0.4
RRSRDPGYDHLWDETLSSSHQKCP [PLEKHN1] | 3.81 ± 0.32 | 4.04 ± 0.13
RRTRPRHHHGRSRPDRSSQGGSLP [CHGB] | 4.93 ± 0.36 | 5.07 ± 0.23
RSIPDTQLEQVIESQKANQCAVLI [ACSBG2] | 3.54 ± 0.14 | 3.67 ± 0.47
RSPSGSLRSARGSRGGTRGWLPSH [RBMY1A1] | 3.95 ± 0.18 | 4.07 ± 0.17
RSYIKLFQAPCQRCGKFLQDGLPP [MED27] | 2.19 ± 0.17 | 2 ± 0.1
RTIVKGYNENVYTEDGKLDIWSKS [MED27] | 3.84 ± 0.35 | 3.91 ± 0.3
RTMLDFPQHVSSDKEVRAASTEAD [NLN] | 5.55 ± 0.23 | 4.74 ± 1.4
RTPEILKKALSGLSSRWKNWWIRG [CDS1] | 2.49 ± 0.86 | 2.26 ± 0.73
RTPSAFPQTPAAPPATLGEGSADT [EHMT1] | 5.3 ± 0.21 | 5.25 ± 0.12
RVGQWVRMENVTVLGEDVIVNDEL [GMPPB] | 4.01 ± 0.066 | 4.07 ± 0.24
RVLRGRPGAGSRRRGRMALCGQAA [FBXO33] | 4 ± 0.18 | 4.74 ± 0.22
RVQGVLRGRAREREQLQAEASERF [HES6] | 4.39 ± 0.32 | 4.48 ± 0.25
RVVSWLVSAEGSHPDPAPFCADNP [DVL3] | 2.35 ± 0.3 | 2.58 ± 0.24
RWCCCCGERETRTPEELTILGETQ [CLCN6] | 3.76 ± 0.27 | 3.79 ± 0.18
RYLVGEHQADLEVANRHGHTCLMI [FEM1A] | 2.19 ± 0.42 | 2.38 ± 0.24
SAGSPPELQGLPELHEECEGNHPS [NET1] | 5.46 ± 0.17 | 5.56 ± 0.16
SAKTRQRVEDAFYTLVREIRQYRL [KRAS] | – | 2.31 ± 0.4
SASSIKQILLEWCRSKTLGYQHVD [SMTNL2] | 2.22 ± 0.19 | 2.42 ± 0.35
SAVARSNSWMGSQGPMSQRRENYG [RBMY1A1] | 3.68 ± 0.43 | 3.96 ± 0.5
SCIGNKQKAVKSCLVCQASFCELH [TRIM29] | 3.51 ± 0.16 | 3.79 ± 0.34
SDTTPLPSWAALNSSTWGSLKQAL [SNX8] | 2.7 ± 0.2 | 2.94 ± 0.12

Sequence | protein stability index (treatment: DMSO) | protein stability index (treatment: MLN4924 1 uM, 8 h)
SEDLDGHSDPEESFARDLPDFPSI [RETREG3] | 5.33 ± 0.2 | 5.13 ± 0.45
SEEALRADGFGDNPFYHCLVAEIL [SAT2] | 3.08 ± 0.24 | 3.26 ± 0.25
SEEMIAEFKAAFDMFDADGGGDIS [TNNC2] | 5.16 ± 0.32 | 5.11 ± 0.43
SEEQVSKNLFGPPLESAFDHEDFT [FCHO1] | 5.22 ± 0.4 | 5.26 ± 0.21
SEREANDALNAYVCKGLPQHEEIC [INTS3] | 4.56 ± 0.23 | 4.52 ± 0.25
SFFYPVLFVLFMFFGMAFNFIVND [SOAT1] | 2 ± 0.2 | 1.96 ± 0.32
SFSEETEKKFEHFSGLLNNQLSPQ [LOXL2] | 4.09 ± 0.47 | 4.56 ± 0.18
SFSNYRPFEPQALGLSPSWRLTGF [SEPHS2] | 1.95 ± 0.2 | 2.01 ± 0.42
SFVYVNPEDGRIFAQRTFDYELLQ [PCDHGC5] | 2.2 ± 0.26 | 2.56 ± 0.28
SGETWNPLKLHYQLRNVRERLAKN [GOLPH3] | 2.87 ± 0.54 | 3.03 ± 0.21
SGKELKIDIIPNPQERTLTLVDTG [HSP90AB1] | 3.98 ± 0.42 | 3.58 ± 0.48
SGTMGAAKVTGEVLDILTRLPESV [FLOT1] | 3.64 ± 0.38 | 3.71 ± 0.24
SHSKAPSGSQMSHNAVTSHQRPGW [NCF4] | 3.88 ± 0.23 | 4.05 ± 0.22
SINQRLNKRERSKLKNLRRKQRRR [RNF180] | 3.9 ± 0.14 | 3.93 ± 0.24
SKFRRKDREDSPERCSDSDEEKKA [CLINT1] | 5.43 ± 0.27 | 5.47 ± 0.14
SKLAQLTLEQILEHLDNLRLNLTN [INTS3] | 2.3 ± 0.39 | 2.2 ± 0.21
SKSNLGWTPLHLACYFGHRQVVQD [OSBPL1A] | 2.62 ± 0.6 | 2.12 ± 0.55
SKYLLEEWFQNCYARYHQAFADRD [TEKT4] | 2.48 ± 0.24 | 2.15 ± 0.25
SLAAFSVISVVSYLILALLSVTIS [RTN3] | 3.41 ± 0.21 | 2.8 ± 0.19
SLAEVRVGYQSQNISCFFRLVDRD [MYORG] | 2.42 ± 0.24 | 2.45 ± 0.26
SLEISPQNVDVNVHPTKHEVHFLH [MLH1] | 3.46 ± 0.23 | 3.63 ± 0.32
SLESEEEEYPGITAEDSNDIYILP [BCL2L13] | 5.06 ± 0.22 | 5.05 ± 0.23
SLFKLKPLSNKTATDDTGGKDPRN [PLD5] | 4.44 ± 0.54 | 4.65 ± 0.11

Sequence | protein stability index (treatment: DMSO) | protein stability index (treatment: MLN4924 1 uM, 8 h)
SLGQLPLPPIPHVFSAGTGSAILP [PLAGL1] | 2.82 ± 0.28 | 3.07 ± 0.22
SLIPPRSEQLVNFTGKAEMGGPFS [TMEM106C] | 3.65 ± 0.34 | 3.47 ± 0.3
SLKKGSLVKNLKDTLGLGKTRRKT [NCK2] | 3.96 ± 0.18 | 3.81 ± 0.31
SLKLKSSHHSKHKAPSKLGLIISG [DLC1] | 2.66 ± 0.072 | 2.77 ± 0.55
SLKQALKGLSVEFALLADKAAQQG [SNX8] | 2.32 ± 0.18 | 2.52 ± 0.31
SLLVLIEPVAAGSGIPEVKCYLNG [CLCN6] | 1.99 ± 0.92 | 2.44 ± 0.43
SLQRWEHLKKVASRYQNNIKNDKY [PRIM1] | 2.47 ± 0.25 | 2.91 ± 0.56
SLQSTGKCLLYCNGVLEPLYLCPN [SLC25A39] | 2.03 ± 0.34 | 2.21 ± 0.5
SLRLWDTFGDHHKDRRFAYGRSDV [RHOBTB1] | 2.87 ± 0.38 | 2.92 ± 0.24
SMSSRLSIYDNVPGSILYSSSGDL [DLC1] | 3.24 ± 0.089 | 3.13 ± 0.22
SNHVDDFTTFRGTELSFLVTTHQP [EDNRA] | 2.61 ± 0.4 | 2.8 ± 0.4
SNSLAIAILMKAYQRFRQKSKASF [PTGFR] | 2.1 ± 0.25 | 2.23 ± 0.19
SPDSPKGSSETETEPPVALAPGPA [ESRRA] | 5.56 ± 0.31 | 5.63 ± 0.12
SPEARDARSPSGPSGSLENGTKAD [TRIM29] | 5.36 ± 0.44 | 5.61 ± 0.18
SPQSGSILTEETEVKGTLEGDVCG [PBXIP1] | 5.59 ± 0.11 | 5.33 ± 0.35
SQEAGLPAGAGPSPTFPALGIGMD [SEPHS2] | 4.64 ± 0.22 | 4.65 ± 0.25
SQEEGKSALEDQGSNPSSSNSSQD [PPFIA4] | 5.67 ± 0.16 | 5.62 ± 0.28
SQELPPPDPGPSPEASHLRFRRFR [ZNF263] | 4.76 ± 0.21 | 5.14 ± 0.12
SQGEVEKLIKCDEIQVDSEEPVFE [KLHL12] | 5.23 ± 0.4 | 5.47 ± 0.25
SQPPKKKPKTTNIELQGVPNDEVH [RBBP5] | 5.32 ± 0.2 | 5.28 ± 0.14
SRHLNSQVKKTTTRWCHIVRDSDS [PHTF1] | 2.33 ± 0.54 | 3.15 ± 0.66
SRLWDSRLRHYLGSRYDARRGVSD [DNAAF3] | 3.09 ± 0.33 | 3.23 ± 0.18
SSCCLHICQGIRGLWGTTLTENTA [PKD2L1] | 2.07 ± 0.21 | 1.97 ± 0.24

Sequence | protein stability index (treatment: DMSO) | protein stability index (treatment: MLN4924 1 uM, 8 h)
SSDMMDSSSFSNLDLSEEDSDDPS [VDR] | 5.66 ± 0.25 | 5.63 ± 0.26
SSEDYRQLELVILQSEPHRAGVQW [KCNK9] | 2.41 ± 0.19 | 2.38 ± 0.29
SSENFDDYMKEVGVGFATRKVAGM [FABP4] | 3.27 ± 0.1 | 3.55 ± 0.3
SSGAGSSPPAAPCPPPPGPAAAPE [ZBED3] | 5.36 ± 0.24 | 5.35 ± 0.085
SSGEDDDFKSCPQGPQGREGLAFL [PWWP2B] | 4.75 ± 0.23 | 4.85 ± 0.18
SSGQCRRRKRTYWNDSCGEDMEAS [WEE1] | 4.18 ± 0.43 | 4.52 ± 0.43
SSTTGLFYSAEIICAIEYLHSKEI [PRKX] | 3.13 ± 0.61 | 3.33 ± 1
SVIKNYEDHFPLLFSEASECMLLV [MAGEA10] | 3.3 ± 0.74 | 2.33 ± 0.046
SVNDQCGFGVLRLDADAAQRVVYL [TSPAN10] | 2.32 ± 0.27 | 2.28 ± 0.23
SWAKSIPGFSSLSLSDQMSVLQSV [ESRRA] | 2.5 ± 0.32 | 2.66 ± 0.17
SWEPLSGPSTPSPVAAQFTSEGTT [FCHO1] | 4.61 ± 0.27 | 4.74 ± 0.22
SYKNLTLKFHKLVNVTIHFRLKTI [MCOLN1] | 3.21 ± 0.5 | 3.03 ± 0.41
TADISSHFQEAIDFIDCVREKGGK [DUSP5] | 4.4 ± 0.26 | 4.7 ± 0.22
TASFRTSKYLLEEWFQNCYARYHQ [TEKT4] | 1.89 ± 0.21 | 2.22 ± 0.24
TASYPSDGCGADGLRSRVKYGVKT [NOL4L] | 3.84 ± 0.24 | 3.98 ± 0.32
TAYNKGRLQSSFWIVDKQHVYIGS [PLD5] | 2.49 ± 0.45 | 2 ± 0.27
TDAPEQFISQVTVLKYFSHYMEEN [PLK2] | 2.09 ± 0.28 | 2.15 ± 0.23
TDDQLLALLPSLSHCSQLTTLSFY [PRAME] | 2.26 ± 0.37 | 2.05 ± 0.3
TDVQKKKLVDAIVSGDTSKLMKIL [RIPK4] | 2.78 ± 0.73 | 2.77 ± 0.31
TECEPSELFQLQTYSLPPFLKAVL [CDS1] | 2.65 ± 0.22 | 2.56 ± 0.22
TELLAKITNTDVDCLKACQEQIEA [CCND2] | 4.45 ± 0.046 | 4.61 ± 0.32
